Source: patent US20180179296A1
Each block holds one substance with its values, some of them ahead of it.

How the values were obtained:
[1] = molecular target: D3H44 light chain, wild type (Design 12 L2) (humanized); assay: light chain competition assay: heavy chain co-expressed with L1 and L2, SPR read-out of light-chain tags; competitor Design 12 L1
[2] = molecular target: Design 12 L1: D3H44 light chain L89R_F98W (humanized); assay: light chain competition assay: heavy chain co-expressed with L1 and L2, SPR read-out of light-chain tags; competitor Design 12 L2 (WT)
[3] = molecular target: tissue factor extracellular domains (human) (UniProt P13726); assay: SPR (ProteOn XPR36), TF immobilised, heterodimer as analyte, 1:1 model
[4] = molecular target: Design 11 L2: D3H44 light chain S176L (humanized); assay: light chain competition assay: heavy chain co-expressed with L1 and L2, SPR read-out of light-chain tags; competitor Design 11 L1
[5] = molecular target: Design 11 L1: D3H44 light chain V133S (humanized); assay: light chain competition assay: heavy chain co-expressed with L1 and L2, SPR read-out of light-chain tags; competitor Design 11 L2
[6] = molecular target: Design 13 L2: D3H44 light chain V133A_Q160K_T178R (humanized); assay: light chain competition assay: heavy chain co-expressed with L1 and L2, SPR read-out of light-chain tags; competitor Design 13 L1
[7] = molecular target: Design 13 L1: D3H44 light chain Q124E_V133W_Q160E_T180E (humanized); assay: light chain competition assay: heavy chain co-expressed with L1 and L2, SPR read-out of light-chain tags; competitor Design 13 L2
[8] = molecular target: Design 14 L2: D3H44 light chain Q124R_Q160K_T178R (humanized); assay: light chain competition assay: heavy chain co-expressed with L1 and L2, SPR read-out of light-chain tags; competitor Design 14 L1
[9] = molecular target: Design 14 L1: D3H44 light chain Q124E_Q160E_T178D (humanized); assay: light chain competition assay: heavy chain co-expressed with L1 and L2, SPR read-out of light-chain tags; competitor Design 14 L2
[10] = molecular target: Design 15 L2: D3H44 light chain Q160K_T178R (humanized); assay: light chain competition assay: heavy chain co-expressed with L1 and L2, SPR read-out of light-chain tags; competitor Design 15 L1
[11] = molecular target: Design 15 L1: D3H44 light chain Q124E_Q160E_T178D (humanized); assay: light chain competition assay: heavy chain co-expressed with L1 and L2, SPR read-out of light-chain tags; competitor Design 15 L2
[12] = molecular target: Design 26 L2: D3H44 light chain F116A_S131K_L135A (humanized); assay: light chain competition assay: heavy chain co-expressed with L1 and L2, SPR read-out of light-chain tags; competitor Design 26 L1
[13] = molecular target: Design 26 L1: D3H44 light chain L135W (humanized); assay: light chain competition assay: heavy chain co-expressed with L1 and L2, SPR read-out of light-chain tags; competitor Design 26 L2
[14] = molecular target: Design 27 L2: D3H44 light chain F118W_Q124E_V133S_S176A_T178S_T180E (humanized); assay: light chain competition assay: heavy chain co-expressed with L1 and L2, SPR read-out of light-chain tags; competitor Design 27 L1
[15] = molecular target: Design 27 L1: D3H44 light chain F116A_V133G_S176F_T178A (humanized); assay: light chain competition assay: heavy chain co-expressed with L1 and L2, SPR read-out of light-chain tags; competitor Design 27 L2
[16] = molecular target: Design 28 L2: D3H44 light chain F118W_V133S_S176A_T180E (humanized); assay: light chain competition assay: heavy chain co-expressed with L1 and L2, SPR read-out of light-chain tags; competitor Design 28 L1
[17] = molecular target: Design 28 L1: D3H44 light chain F116A_S131K_V133G_S176F_T178A (humanized); assay: light chain competition assay: heavy chain co-expressed with L1 and L2, SPR read-out of light-chain tags; competitor Design 28 L2
[18] = molecular target: Design 29 L2: D3H44 light chain Q124R (humanized); assay: light chain competition assay: heavy chain co-expressed with L1 and L2, SPR read-out of light-chain tags; competitor Design 29 L1
[19] = molecular target: Design 29 L1: D3H44 light chain Q124E_V133D (humanized); assay: light chain competition assay: heavy chain co-expressed with L1 and L2, SPR read-out of light-chain tags; competitor Design 29 L2
[20] = molecular target: Design 30 L2: D3H44 light chain Q160K_T178R (humanized); assay: light chain competition assay: heavy chain co-expressed with L1 and L2, SPR read-out of light-chain tags; competitor Design 30 L1
[21] = molecular target: Design 30 L1: D3H44 light chain Q124E_Q160E_T180E (humanized); assay: light chain competition assay: heavy chain co-expressed with L1 and L2, SPR read-out of light-chain tags; competitor Design 30 L2
[22] = molecular target: Design 31 L2: D3H44 light chain Q38D_F116A_L135A (humanized); assay: light chain competition assay: heavy chain co-expressed with L1 and L2, SPR read-out of light-chain tags; competitor Design 31 L1
[23] = molecular target: Design 31 L1: D3H44 light chain Q38R_L135W (humanized); assay: light chain competition assay: heavy chain co-expressed with L1 and L2, SPR read-out of light-chain tags; competitor Design 31 L2
[24] = molecular target: Design 32 L2: D3H44 light chain Q38E_F98W (humanized); assay: light chain competition assay: heavy chain co-expressed with L1 and L2, SPR read-out of light-chain tags; competitor Design 32 L1
[25] = molecular target: Design 32 L1: D3H44 light chain Q38R (humanized); assay: light chain competition assay: heavy chain co-expressed with L1 and L2, SPR read-out of light-chain tags; competitor Design 32 L2

H2 Readout [1]: 88%
H2 Readout [2]: 15%
Substance: D3H44 heavy chain, wild type (Design 12 H2)

Kd [3]: 40 pM
Substance: Design 11 H2-L2 heterodimer (D3H44 heavy F174V_P175S_S188G, light S176L) (Fab)

H2 Readout [4]: 98%
H2 Readout [5]: 1%
Substance: Design 11 H2: D3H44 heavy chain F174V_P175S_S188G

H1 Readout [6]: 1%
H1 Readout [7]: 104%
Substance: Design 13 H1: D3H44 heavy chain L143A_D144G_Q179R

Kd [3]: 86 pM
Substance: Design 13 H2-L2 heterodimer (D3H44 heavy K145T_Q179D_S188F, light V133A_Q160K_T178R) (Fab)

H1 Readout [8]: 1%
H1 Readout [9]: 84%
Substance: Design 14 H1: D3H44 heavy chain D148G_S181R

Kd [3]: 71 pM
Substance: Design 15 H2-L2 heterodimer (D3H44 heavy K147T_Q175D_S183L, light Q160K_T178R) (Fab)

H2 Readout [10]: 83%
H2 Readout [11]: 24%
Substance: Design 15 H2: D3H44 heavy chain K147T_Q175D_S183L

H1 Readout [12]: 1%
H1 Readout [13]: 92%
Substance: Design 26 H1: D3H44 heavy chain A139G_V190A

H2 Readout [12]: 106%
H2 Readout [13]: 1%
Substance: Design 26 H2: D3H44 heavy chain A139W_K145Y_Q175E

H2 Readout [14]: 85%
H2 Readout [15]: 12%
Substance: Design 27 H2: D3H44 heavy chain S186K_S188H_V190G

H2 Readout [16]: 94%
H2 Readout [17]: 1%
Substance: Design 28 H2: D3H44 heavy chain A139W_S186K_S188A

H1 Readout [18]: 1%
H1 Readout [19]: 93%
Substance: Design 29 H1: D3H44 heavy chain L143K_D146G

H2 Readout [18]: 102%
H2 Readout [19]: 1%
Substance: Design 29 H2: D3H44 heavy chain L143E_K145T

H1 Readout [20]: 1%
H1 Readout [21]: 96%
Substance: Design 30 H1: D3H44 heavy chain D146G_Q179K

H2 Readout [20]: 102%
H2 Readout [21]: 1%
Substance: Design 30 H2: D3H44 heavy chain L143E_K145T

Kd [3]: 25 pM
Substance: Design 31 H1-L1 heterodimer (D3H44 heavy Q39D_A139G_V190A, light Q38R_L135W) (Fab)

H2 Readout [22]: 78%
H2 Readout [23]: 1%
Substance: Design 31 H2: D3H44 heavy chain Q39R_A139W

H1 Readout [24]: 1%
H1 Readout [25]: 98%
Substance: Design 32 H1: D3H44 heavy chain Q39E

H2 Readout [24]: 93%
H2 Readout [25]: 1%
Substance: Design 32 H2: D3H44 heavy chain Q39R

The next lines start with the substance.

Substance: Design 11 H1-L1 heterodimer (D3H44 heavy S188L_V190Y, light V133S) (Fab)
Kd [3]: 43 pM

Substance: Design 11 H1: D3H44 heavy chain S188L_V190Y
H1 Readout [4]: 24%
H1 Readout [5]: 83%

Substance: Design 12 H1: D3H44 heavy chain V37E_F100D
H1 Readout [1]: 10%
H1 Readout [2]: 99%

Substance: Design 13 H1-L1 heterodimer (D3H44 heavy L143A_D144G_Q179R, light Q124E_V133W_Q160E_T180E) (Fab)
Kd [3]: 87 pM

Substance: Design 13 H2: D3H44 heavy chain K145T_Q179D_S188F
H2 Readout [6]: 87%
H2 Readout [7]: 14%

Substance: Design 14 H2: D3H44 heavy chain K147E_D148G_Q175D_S183L
H2 Readout [8]: 74%
H2 Readout [9]: 2%

Substance: Design 15 H1-L1 heterodimer (D3H44 heavy D146G_Q175R, light Q124E_Q160E_T178D) (Fab)
Kd [3]: 82 pM

Substance: Design 15 H1: D3H44 heavy chain D146G_Q175R
H1 Readout [10]: 1%
H1 Readout [11]: 93%

Substance: Design 27 H1: D3H44 heavy chain A139I_K145T_D146G_Q179E_S188G_V190S
H1 Readout [14]: 1%
H1 Readout [15]: 67%

Substance: Design 28 H1: D3H44 heavy chain A139V_K145L_Q179E_S188G_V190S
H1 Readout [16]: 4%
H1 Readout [17]: 85%

Substance: Design 30 H1-L1 heterodimer (D3H44 heavy D146G_Q179K, light Q124E_Q160E_T180E) (Fab)
Kd [3]: 24 pM

Substance: Design 30 H2-L2 heterodimer (D3H44 heavy L143E_K145T, light Q160K_T178R) (Fab)
Kd [3]: 60 pM

Substance: Design 31 H1: D3H44 heavy chain Q39D_A139G_V190A
H1 Readout [22]: 1%
H1 Readout [23]: 106%

Substance: Wild-type D3H44 heterodimer (anti-tissue factor Fab, one heavy chain and one light chain)
Kd [3]: 52 pM
